Laboratory results taken from article PMC4066811.

Tests used:
[1] = target: GST-syntaxin 3B T14E (phosphomimetic mutant, without the transmembrane domain) (mouse); experiment: pull-down
[2] = target: GST-syntaxin 3B (cytoplasmic domain without the transmembrane domain, residues 2-264), wild type (mouse); experiment: pull-down

## His6-SNAP-25b (recombinant) (from UniProt P60879-1 1-206) (natural protein)
[1]
  amount of bound SNAP-25, normalized to wild type: 180%
[2]
  amount of bound SNAP-25, normalized to wild type: 100%
